This is an account of results in PMC12846431.

One assay deals with TMR-NTT (TMR-labeled Serinc3 NTT(Cys16) peptide, MBP removed) (UniProt Q13530). Briefly: fluorescence polarisation. Conditions: read off a plot. For orientation: Fluorescence polarisation rises when a labelled molecule tumbles more slowly, as on binding a larger partner.
“complex of wild-type MBP-Nef with the α(1–398)/σ2 hemicomplex of AP2 (from UniProt Q90VU7;P18484;P53680) D123K”: the response was 45 mP. Still for that read-out and setting: the same measure for “complex of wild-type MBP-Nef with the α(1–398)/σ2 hemicomplex of AP2 (from UniProt Q90VU7;P18484;P53680) F121D”: 20 mP; for “complex of wild-type MBP-Nef with the α(1–398)/σ2 hemicomplex of AP2 (from UniProt Q90VU7;P18484;P53680) L37D”: 37 mP; for “complex of wild-type MBP-Nef with the α(1–398)/σ2 hemicomplex of AP2 (from UniProt Q90VU7;P18484;P53680) L112D”: 16 mP.

The substance “complex of wild-type MBP-Nef with the α(1–398)/σ2 hemicomplex of AP2 (from UniProt Q90VU7;P18484;P53680) W57A; L58A” yielded a response of 55 mP.

The target of another assay is complex of wild-type MBP-Nef with the α(1–398)/σ2 hemicomplex of AP2 (HIV-1 (NL4.3) | not stated) (UniProt Q90VU7). Briefly: fluorescence polarisation; α(1–398)/σ2 (20 µM) and MBP-Nef WT or mutant (30 µM) mixed 30 min at room temperature, then 200 nM TMR-NTT, 15 μL, 1 or 2 h at room temperature; single concentration; control is probe only.
Settings: not given
Substance “TMR-NTT (TMR-labeled Serinc3 NTT(Cys16) peptide, MBP removed) (from UniProt Q13530 1-39)” yielded an FP signal of 90 mP.
